Changes are numbered by the printed parent chain.
Columns and labels:
[1] = biological target: T1, human ZnT8 over-expressed in HEK293 cells (human, UniProt Q8IWU4 1-369); experiment: flow cytometry, serial mAb dilutions on fixed, permeabilized HEK293 cells stably expressing human ZnT8; one-component fit
T1 construct: whole, on cells; Cells were fixed and permeabilized for immunofluorescence and flow cytometry (intracellular staining); The same id is used for the detergent lysates of over-expressing cells in the HTRF assay; also called ZnT8(+) HEK293 cells; HEK293 cells stably expressing human ZnT8
T1 sequence (looked up): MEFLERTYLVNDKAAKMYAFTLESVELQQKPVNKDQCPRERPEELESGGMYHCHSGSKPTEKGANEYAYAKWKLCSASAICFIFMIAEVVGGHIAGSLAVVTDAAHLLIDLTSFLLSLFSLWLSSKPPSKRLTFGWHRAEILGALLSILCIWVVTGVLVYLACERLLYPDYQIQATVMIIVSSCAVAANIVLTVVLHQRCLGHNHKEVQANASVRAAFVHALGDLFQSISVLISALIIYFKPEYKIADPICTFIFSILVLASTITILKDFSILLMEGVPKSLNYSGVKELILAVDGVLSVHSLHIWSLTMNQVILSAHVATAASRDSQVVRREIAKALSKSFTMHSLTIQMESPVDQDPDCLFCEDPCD
Description: FIG. 6A-6C. mAb binding affinity. (FIG. 6A) Representative confocal microscopy images of immunofluorescence staining of fixed and saponin-permeabilized HEK293 cells with mAb20 or mAb39 staining as indicated. ZnT8(+) or ZnT8(−) denotes HEK293 cells w/o ZnT8 over-expression. Red: mAb20 or mAb39 staining, blue: DAPI, scale bar: 5 um. (FIG. 6B) Histograms of flow cytometry counting events. Arrows indicate leftward shifts of the histogram as a result of mAb serial dilutions. (FIG. 6C) mAb binding to HEK293 cells w/o ZnT8 overexpression as indicated. Immunofluorescence intensities of mAb20 or mAb39 labeling in serial dilutions were obtained from (FIG. 6B). Solid lines are least-squares fits of the binding data to a one-component binding process.
Flow cytometry analysis. HEK293 cells w/o ZnT8 over-expression were fixed, permeabilized, and resuspended in PBS plus 5% BSA at a density of 1×10⁶/ml as described previously (43). Aliquots of 100 μl cell suspension were stained with mAb20 or mAb39 in 3-fold serial dilutions for 2 hours at RT, and then stained with Alexa fluor 647-conjugated donkey-anti-mouse secondary antibody in 1:1000 dilution with 5% BSA (Thermo Fisher Scientific, cat. #A31571). The labeled cells were analyzed immediately by flow cytometry. […]
Binding affinity. […] No mAb staining was detected in parental HEK293 cells without ZnT8 over-expression. […]

[2] = biological target: T2, human ZnT3 with C-terminal FLAG tag (human, UniProt Q99726 1-388); experiment: immunoblot of HEK293 lysates over-expressing FLAG-tagged ZnT homologs
T2 construct: Commercial HEK293 lysate (Origene), SDS-denatured on immunoblots; not shown: C-terminal FLAG octapeptide
T2 sequence (looked up): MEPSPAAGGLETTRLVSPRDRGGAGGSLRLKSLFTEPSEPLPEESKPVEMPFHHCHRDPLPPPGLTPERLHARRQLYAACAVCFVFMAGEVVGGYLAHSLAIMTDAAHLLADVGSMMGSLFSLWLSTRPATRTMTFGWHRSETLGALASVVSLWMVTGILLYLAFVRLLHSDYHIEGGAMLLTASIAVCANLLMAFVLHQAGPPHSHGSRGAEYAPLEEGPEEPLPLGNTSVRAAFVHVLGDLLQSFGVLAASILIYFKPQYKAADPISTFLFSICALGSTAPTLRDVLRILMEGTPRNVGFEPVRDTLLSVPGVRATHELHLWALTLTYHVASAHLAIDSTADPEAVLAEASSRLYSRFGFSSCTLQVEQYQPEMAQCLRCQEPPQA
Description: FIG. 7A-7D. mAb binding specificities (FIG. 7A) mAb binding to ZnT8-His immobilized to Ni-NTA plate. Bound mAb20 (red) or mAb39 (magenta) was detected by an HRP-conjugated secondary antibody. Solid lines are least-squares fits of binding datapoints to a one-component binding process. Error bars are standard errors (n=8). (FIG. 7B) SDS-denatured mouse ZnT8-His (labeled as M) and human ZnT8-His (labeled as H) on immunoblots were detected by mAb20 or mAb39 as indicated. […] (FIG. 7C) Detection of endogenous human ZnT8 in EndoC-βH cells by mAb20 or […] immunoblotting. An equal amount of EndoC-βH lysate (5 μg total protein) was loaded to each lane. (FIG. 7D) Immunoblotting of HEK lysates with or with over-expression of a ZnT homolog as indicated. An approximately equal amount of total lysate protein (5 μg) was located to each lane, probed by either mAb20, mAb39, or anti-FALG antibody as indicated. FIG. 8. HTRF response to human ZnT8, mouse ZnT8 and human ZnT3.
Immunoblotting. SDS-solubilized cell lysate of EndoC-β cells or HEK293 cells over-expressing ZnT8 was subjected to SDS-PAGE and probed with a 1:3000 mAb20 or mAb39, followed by 1:3000 anti-mouse HRP-conjugated secondary antibody (GE Healthcare cat. #NA931V). A duplicated gel was Coomassie-stained to show an equal protein loading for each lane ([…]). To compare the mAb20 or mAb39 reactivities to different ZnT homolog, we used commercial HEK293 lysates with lentivirus-mediated over-expression of ZnT1, ZnT2, ZnT3, ZnT4, ZnT7, ZnT8, ZnT10, each is tagged by a Flag tag at the C-terminus (Origene, catalog nos. LY500001, LC412033, LC423751, LC401170, LY415673, LC428544, LC406320, and LC412886). Approximately equal amounts of total protein (5 μg) was loaded to each lane, and then probed with mAb20, mAb39, or anti-FLAG antibody (Origene, catalog no. TA50011-100) as above. The expression levels of ZnT homologs varied with ZnT1 most abundantly expressed.

B1: mAb20 (antibody, V domains shown)
VH: QIQLVQSGPELKKPGETVKISCKASGYIFTNYPMHWVKQAPGKGLKWMGWINTYSGVPTHADDFKGRFAFSLETSANSAFLQINNLKNEDTATYFCTRSRITPTGGYAMDYWGQGTSVTVSS
VL: DVVMTQTPLSLPVSLGDQASISCRSSQSLVHSNGNTYLHWYLQKPGQSPNLLISKVSNRFSGVPERFSGSGSGTDFTLKISRVEAEDLGVYFCSQNTHVPWTFGGGTKLEIKR
notes: Mouse hybridoma mAb purified on protein A/G; In some assays it was labelled with Alexa Fluor 488 or terbium cryptate; also called monoclonal antibody mAb20; anti-ZnT8 mAb20
With B1 the Kd [1] was 0.8 nM and the binding result [2] was “no binding”.

B2: mAb39 (antibody, V domains shown)
VH: QVQLQQPGAELVKPGASVKLSCKASGYSFTTYWMHWVKQRPGQGLEWVGDINPRNGRTNYNEKSKSKATLTVDISSSTVYMQVSSLTSEDSAVYYCAIWSGAMDYWGPGTSVTVSS
VL: B1 VL with A19P, R24K, S32N, N50K, S54Y, E65D, N96T, W101P
notes: Mouse hybridoma mAb purified on protein A/G; In some assays it was labelled with Alexa Fluor 555 or d2; also called monoclonal antibody mAb39; anti-ZnT8 mAb39
B2 was tested, and the Kd [1] was 0.7 nM and the binding result [2] was “no binding”.

Reference: patent publication US20210238279A1 (Johns Hopkins, published 2021)
